One series deals with T1, BglC (Thermobifida fusca, UniProt Q9LAV5).
T1 sequence (Q9LAV5 1-484): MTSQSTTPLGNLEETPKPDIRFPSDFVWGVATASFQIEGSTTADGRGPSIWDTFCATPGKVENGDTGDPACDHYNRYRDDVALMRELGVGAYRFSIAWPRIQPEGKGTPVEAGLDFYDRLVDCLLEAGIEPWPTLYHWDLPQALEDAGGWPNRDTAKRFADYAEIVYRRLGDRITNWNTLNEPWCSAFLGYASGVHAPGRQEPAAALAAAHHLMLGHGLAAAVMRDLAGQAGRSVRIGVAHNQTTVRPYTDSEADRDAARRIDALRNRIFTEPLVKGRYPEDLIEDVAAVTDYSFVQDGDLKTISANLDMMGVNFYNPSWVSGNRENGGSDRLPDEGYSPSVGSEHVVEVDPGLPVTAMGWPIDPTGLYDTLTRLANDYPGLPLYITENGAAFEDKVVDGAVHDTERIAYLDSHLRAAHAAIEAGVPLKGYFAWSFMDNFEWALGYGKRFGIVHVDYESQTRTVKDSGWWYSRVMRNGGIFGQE
The series can be described thus: 4-nitrophenol release at […] nm, continuous plate assay, non-linear regression. In kind it is biochemical.

Substrate in the series “purified protein”: O=[N+]([O-])c1ccc(O[C@@H]2O[C@H](CO)[C@@H](O)[C@H](O)[C@H]2O)cc1
The series can be described thus: purified protein. As to conditions: 100 mM sodium phosphate pH 7.0, 37 °C, 2.63 nM enzyme.

`O=C1O[C@H](CO)[C@@H](O)[C@H](O)[C@H]1O` [D-glucono-δ-lactone] had a Ki on BglC of 6.63 ± 1.3 µM.

B1: BglC (Thermobifida fusca) (protein)
chain: T1 sequence (Q9LAV5 1-484)
As to B1, in “purified protein”, the Km is recorded as 0.56 ± 0.01 mM and the kcat was determined as 48.68 s⁻¹.

In general, Ki refers to a measure of affinity in units of concentration, obtained from inhibition or displacement. A higher Ki goes with weaker binding. Usually Km stands for the concentration of substrate that gives half-maximal velocity. As usually defined, the kcat is the maximal rate divided by the concentration of active sites.

(Values after paper doi:10.1101/2022.07.22.501097v1 (biorxiv, 2022).)
